Reference: patent publication US20190127451A1

Target: alternative-spliced domain A1 of human Tenascin C (human) (UniProt P24821)
Assay: SPR (BIAcore), antibody over hTnC A1 on CM5 chip, fitted 50 nM curves

Sequence of UniProt P24821 (P24821 1072-1162): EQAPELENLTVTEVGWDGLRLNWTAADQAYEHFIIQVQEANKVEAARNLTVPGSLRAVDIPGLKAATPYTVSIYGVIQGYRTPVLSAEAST

fold lower apparent KD than wild-type IgG(F16)-3S: 4 to 8 fold
B1: IgG(F16)-3S-N88Q (antibody, V domains shown)
VH: EVQLLESGGGLVQPGGSLRLSCAASGFTFSRYGMSWVRQAPGKGLEWVSAISGSGGSTYYADSVKGRFTISRDNSKNTLYLQMNSLRAEDTAVYYCAKAHNAFDYWGQGTLVTVSS
VL: SSELTQDPAVSVALGQTVRITCQGDSLRSYYASWYQQKPGQAPVLVIYGKNNRPSGIPDRFSGSSSGNTASLTITGAQAEDEADYYCQSSVYTMPPVVFGGGTKLTVLG
modifications: glycosylated Heavy Chain (site not given)
